Results from patent US20200181261A1 (Bayer, published 2020).

Assays:
Test in all cases: FACS, transfected HeLa cells
[1] = target: T1, human CEACAM6, full-length, on cells (human, UniProt P40199 35-320)
T1 construct: used both for transfected HeLa cells and for tumor cell lines that express CEACAM6 endogenously; also called TPP-4639; HeLa human CEACAM6
T1 sequence: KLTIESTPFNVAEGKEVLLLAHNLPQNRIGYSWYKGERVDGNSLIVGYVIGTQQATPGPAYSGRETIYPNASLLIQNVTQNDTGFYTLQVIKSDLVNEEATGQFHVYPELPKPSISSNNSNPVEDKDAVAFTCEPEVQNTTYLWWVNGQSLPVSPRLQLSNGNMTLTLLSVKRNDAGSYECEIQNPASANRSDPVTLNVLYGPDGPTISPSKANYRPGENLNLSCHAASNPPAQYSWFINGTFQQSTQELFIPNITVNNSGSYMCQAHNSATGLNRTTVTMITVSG
Method: (§1) For FACS experiments HeLa wild type cells were cultured in RPMI-1640, 10% FCS, while CEACAM-receptor transfected HeLa cells received in addition 0.5% Gentamycin (stock 10 mg/ml, Fa. PAA) and 200 μg/ml Hygromycin B (stock 50 mg/ml, Invitrogen). Cells were washed 3 times with PBS w/o Ca²⁺/Mg²⁺ and were detached from the culture plate non-enzymatically with EDTA dissociation buffer (Gibco). Cells were washed in cold FACS buffer (PBS w/o Ca²⁺/Mg²⁺ and heat-inactivated 3% FCS) and were counted using a countess machine (Invitrogen). 10⁵ cells per well were plated and incubated with the respective primary antibody (5 μg/ml) for 1 h at 4° C. on a plate shaker. […] After 2 times washing the cells were resuspended in 100 μl FACS buffer and were analysed on a FACS Canto II machine (Beckton Dickinson) or a FACS Array (Beckton Dickinson).
(§2) For EC₅₀ analysis, the primary antibodies were used at increasing concentrations in a range from 0.1 nM to 100 nM. Half maximal binding values (EC₅₀) were determined by plotting the median fluorescence intensity signal against the concentration (logarithmic scale). Curve fitting of data was performed using the Graph Pad prism analysis software.

[2] = target: T2, Macaca fascicularis (cynomolgus) CEACAM6, full-length, on transfected HeLa cells (Macaca fascicularis, GPI anchor at the C-terminus on the cell surface, not carried by the letters)
T2 construct: also called TPP-4189; HeLa Cynomolgus CEACAM6
T2 chain: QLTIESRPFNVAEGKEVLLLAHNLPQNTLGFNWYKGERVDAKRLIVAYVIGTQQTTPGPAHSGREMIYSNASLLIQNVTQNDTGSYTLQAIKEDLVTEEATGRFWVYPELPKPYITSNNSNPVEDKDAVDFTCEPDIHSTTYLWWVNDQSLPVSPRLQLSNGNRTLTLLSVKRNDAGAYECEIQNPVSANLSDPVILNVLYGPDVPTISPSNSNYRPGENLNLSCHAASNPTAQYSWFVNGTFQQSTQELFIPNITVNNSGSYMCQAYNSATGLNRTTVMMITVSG
Method: as §1, §2

[3] = target: T3, human CEACAM1, full-length, on transfected HeLa cells (human, UniProt P13688 35-526)
T3 construct: also called TPP-4185; HeLa human CEACAM1
T3 sequence: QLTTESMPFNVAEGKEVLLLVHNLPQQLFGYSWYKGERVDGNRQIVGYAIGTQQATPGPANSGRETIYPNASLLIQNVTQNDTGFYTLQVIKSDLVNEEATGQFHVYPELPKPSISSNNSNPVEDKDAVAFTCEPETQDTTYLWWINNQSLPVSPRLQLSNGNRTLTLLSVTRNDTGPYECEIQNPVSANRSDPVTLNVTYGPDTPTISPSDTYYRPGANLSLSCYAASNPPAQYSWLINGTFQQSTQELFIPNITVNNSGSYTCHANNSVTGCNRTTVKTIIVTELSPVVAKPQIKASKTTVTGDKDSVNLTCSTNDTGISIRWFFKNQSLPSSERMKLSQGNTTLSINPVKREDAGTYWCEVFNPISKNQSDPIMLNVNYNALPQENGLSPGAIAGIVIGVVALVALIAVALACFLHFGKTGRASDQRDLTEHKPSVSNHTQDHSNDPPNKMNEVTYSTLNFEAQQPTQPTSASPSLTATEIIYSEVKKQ
Method: as §1, §2

[4] = target: T4, human CEACAM5, full-length, on transfected HeLa cells (human, UniProt P06731 35-685, GPI anchor at the C-terminus on the cell surface, not carried by the letters)
T4 construct: also called TPP-4188; HeLa human CEACAM5
T4 sequence: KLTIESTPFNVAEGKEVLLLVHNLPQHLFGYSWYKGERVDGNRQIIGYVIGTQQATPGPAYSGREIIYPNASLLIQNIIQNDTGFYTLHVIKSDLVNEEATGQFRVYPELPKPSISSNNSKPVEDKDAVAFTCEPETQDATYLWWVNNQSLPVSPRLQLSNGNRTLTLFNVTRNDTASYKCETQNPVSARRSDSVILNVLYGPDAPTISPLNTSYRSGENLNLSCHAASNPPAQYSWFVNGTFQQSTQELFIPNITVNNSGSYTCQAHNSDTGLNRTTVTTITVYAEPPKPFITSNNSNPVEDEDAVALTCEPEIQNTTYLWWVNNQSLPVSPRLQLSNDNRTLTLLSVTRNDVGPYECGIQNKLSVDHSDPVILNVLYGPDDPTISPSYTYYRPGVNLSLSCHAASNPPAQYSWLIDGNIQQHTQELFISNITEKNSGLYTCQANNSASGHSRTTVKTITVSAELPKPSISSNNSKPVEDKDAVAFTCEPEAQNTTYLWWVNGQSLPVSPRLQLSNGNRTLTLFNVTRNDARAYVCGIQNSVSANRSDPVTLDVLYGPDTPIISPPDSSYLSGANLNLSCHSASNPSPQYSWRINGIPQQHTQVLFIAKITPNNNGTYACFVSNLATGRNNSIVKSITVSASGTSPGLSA
Method: as §1, §2

[5] = target: T5, human CEACAM8, full-length, on transfected HeLa cells (human, UniProt P31997 35-320)
T5 construct: also called TPP-4190; HeLa human CEACAM8
T5 sequence: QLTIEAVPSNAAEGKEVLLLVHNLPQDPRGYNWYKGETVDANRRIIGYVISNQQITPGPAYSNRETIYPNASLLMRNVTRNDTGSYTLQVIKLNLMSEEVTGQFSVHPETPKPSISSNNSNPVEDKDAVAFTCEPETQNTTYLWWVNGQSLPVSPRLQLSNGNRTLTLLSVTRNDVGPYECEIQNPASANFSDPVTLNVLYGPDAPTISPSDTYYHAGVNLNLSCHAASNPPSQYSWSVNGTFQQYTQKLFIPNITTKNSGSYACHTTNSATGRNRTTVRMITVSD
Method: as §1, §2

B1: TPP-3821 (antibody, human IgG2, kappa, V domains shown)
VH: QVTLRESGPALVKPTQTLTLTCTFSGFSLSTYGIGVGWIRQPPGKALEWLAHIWWNDNKYYSTSLKTRLTISKDTSKNQVVLTMTNMDPVDTATYYCARISLPYFDYWGQGTLVTVSS
VL: DIQLTQSPSFLSASVGDRVTITCKASQNVGTAVAWYQQKPGKAPKLLIYSASNRYTGVPSRFSGSGSGTEFTLTISSLQPEDFATYYCQQYNNYPLTFGGGTKVEIKR
notes: humanized from TPP-3187, human IgG2; also called 3187HU2-hIgG2Kappa
For B1, which EC50 [1] is on record?
Its EC50 is 1 nM.

And the EC50 [2]?
The EC50 was 1 nM.

Does B1 bind [3]?
Result: no binding (tested: 5 µg/ml)

Does B1 bind [4]?
Result: no binding (tested: 5 µg/ml)

Does B1 bind [5]?
Result: no binding (tested: 5 µg/ml)

B2: TPP-3310 (antibody, human IgG2, kappa)
heavy: QVTLRESGPALVKPTQTLTLTCTFSGFSLSTYGIGVGWIRQPPGKALEWLAHIWWNDNKYYSTSLKTRLTISKDTSKNQVVLTMTNMDPVDTATYYCARISLPYFDYWGQGTTLTVSSASTKGPSVFPLAPCSRSTSESTAALGCLVKDYFPEPVTVSWNSGALTSGVHTFPAVLQSSGLYSLSSVVTVPSSNFGTQTYTCNVDHKPSNTKVDKTVERKCCVECPPCPAPPVAGPSVFLFPPKPKDTLMISRTPEVTCVVVDVSHEDPEVQFNWYVDGVEVHNAKTKPREEQFNSTFRVVSVLTVVHQDWLNGKEYKCKVSNKGLPAPIEKTISKTKGQPREPQVYTLPPSREEMTKNQVSLTCLVKGFYPSDIAVEWESNGQPENNYKTTPPMLDSDGSFFLYSKLTVDKSRWQQGNVFSCSVMHEALHNHYTQKSLSLSPG
light: DIQLTQSPSFLSASVGDRVTITCKASQNVGTAVAWYQQKPGKAPKLLIYSASNRYTGVPSRFSGSGSGTEFTLTISSLQPEDFATYYCQQYSSYPLTFGGGTKVEIKRTVAAPSVFIFPPSDEQLKSGTASVVCLLNNFYPREAKVQWKVDNALQSGNSQESVTEQDSKDSTYSLSSTLTLSKADYEKHKVYACEVTHQGLSSPVTKSFNRGEC
notes: humanized from TPP-2971, human IgG2; also called TPP-2971HU1-hIgG2Kappa
B2 was tested. Which EC50 [1] did it give?
Its EC50 is 0.6 nM.

And the EC50 [2]?
Its EC50 is 1.5 nM.

Does B2 bind [3]?
Result: no binding (tested: 5 µg/ml)

Does B2 bind [4]?
Result: no binding (tested: 5 µg/ml)

Does B2 bind [5]?
Result: no binding (tested: 5 µg/ml)

B3: TPP-3820 (antibody, human IgG2, kappa, V domains shown)
VH: QVTLRESGPALVKPTQTLTLTCTFSGFSLTTYGIGVGWIRQPPGKGLEWLAHIWWNDNKYYSTSLKTRLTISKDTSKNQVVLTMTNMDPVDTATYYCARISLPYFDYWGQGTLVTVSS
VL: DIQLTQSPSFLSASVGDRVTITCKASQNVGTAVAWYQQKPGKAPKLLIYSASNRYTGVPSRFSGSGSGTEFTLTISSLQPEDFATYYCQQYNNYPLTFGGGTKVEIKR
notes: humanized from TPP-3187, human IgG2; also called 3187HU1-hIgG2Kappa
Which results are given for B3?
EC50 [1]: 1 nM; EC50 [2]: 1 nM; binding result [3]: no binding (tested: 5 µg/ml); binding result [4]: no binding (tested: 5 µg/ml); binding result [5]: no binding (tested: 5 µg/ml)

B4: TPP-3707 (antibody, human IgG2, kappa, V domains shown)
VH: EVQLVESGGGLVQPGGSLRLSCAASGFTFSLYQMHWVRQAPGKGLEWVSWISFSGGNTGYADSVKGRFTISRDNSKNTLYLQMNSLRAEDTAVYYCARATGYSSPWYLDPWGQGTLVTVSS
VL: DIQMTQSPSSLSASVGDRVTITCQASHEIDNYLNWYQQKPGKAPKLLIYDAYWSKTGVPSRFSGSGSGTDFTLTISSLQPEDIATYYCQGYDDLSVTFGGGTKVDIKR
notes: also called 090E-M007-A09-Mat2-hIgG2-hIgG2Kappa
What does the source list for B4?
EC50 [1]: 19 nM; FACS median fluorescence [1]: 1000 to 10000 medianfluorescence; EC50 [2]: 4 nM; FACS median fluorescence [3]: 10 to 100 medianfluorescence; binding result [4]: no binding (tested: 5 µg/ml); binding result [5]: no binding (tested: 5 µg/ml)

B5: TPP-2971 (antibody, mouse IgG1, V domains shown)
VH: QVTLKESGPGILQPSQTLSLTCSFSGFSLSTYGIGVGWIRQPSGKDLEWLAHIWWNDNKYYNTALKSRLTISKDTSNNQVFLKIASVDTADTATYYCARISLPYFDYWGQGTTLTVSS
VL: DIVMTQSQKFMSTSVGDRVSITCKASQNVGTAVAWYQQKPGQSPKLLIYSASNRYTGVPDRFTGSGSGTDFTLTISNMQSEDLADYFCQQYSSYPLTFGAGTKLELK
notes: murine hybridoma antibody, mouse IgG1; also called 792.15H12C9
For B5, which EC50 [1] is on record?
Its EC50 is 0.5 nM.

And the FACS median fluorescence [1]?
Its FACS median fluorescence is 10 to 100 medianfluorescence.

And the EC50 [2]?
Its EC50 is 0.5 nM.

And the FACS median fluorescence [2]?
Its FACS median fluorescence is 100 to 1000 medianfluorescence.

Does B5 bind [3]?
Result: no binding (tested: 5 µg/ml)

Does B5 bind [4]?
Result: no binding (tested: 5 µg/ml)

Does B5 bind [5]?
Result: no binding (tested: 5 µg/ml)

B6: TPP-3187 (antibody, mouse IgG1, V domains shown)
VH: QVTLKESGPGILQPSQTLSLTCSFSGFSLTTYGIGVGWIRQPSGKGLEWLAHIWWNDNKYYNTALKSRLTISKDTSNNQVFLKIASVDTADTATYYCARISLPYFDYWGQGTTLTVSS
VL: DIVMTQSQKFMSTSVGDRVSITCKASQNVGTAVAWYQQKPGQSPKLLIYSASNRYTGVPDRFTGSGSGTDFTLTISNMQSEDLADYFCQQYNNYPLTFGAGTKLELK
notes: murine hybridoma antibody, mouse IgG1; also called 792.15C4F4
Which results are given for B6?
EC50 [1]: 0.35 nM; FACS median fluorescence [1]: 100 to 1000 medianfluorescence; EC50 [2]: 4 nM; FACS median fluorescence [2]: 100 to 1000 medianfluorescence; binding result [3]: no binding (tested: 5 µg/ml); binding result [4]: no binding (tested: 5 µg/ml); binding result [5]: no binding (tested: 5 µg/ml)
